Earlier results in article PMC3416746.

Columns and labels:
[1] = target: mDia1 N-terminus (Mus musculus) (UniProt O08808)
[2] = target: mDia1 DID DID (Mus musculus) (UniProt O08808)

In the case of RhoA (from UniProt P61586), the Kd [1] is given as 6 nM.
In the case of mDia1 DAD DAD (from UniProt O08808), the Kd [2] is listed as 150 nM.
